From the nanobody polyreactivity screen of Harvey et al. (2022)

Assay: yeast display, Sf9 membrane polyspecificity reagent, FACS + sequencing; frameworks hold sequencing errors
Summary of the method: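 Using colony PCR, genes from sorted yeast display clones were amplified, then sequenced on MiSeq at 2 × 250 and filtered by CDR length. The clones had been stained with 10% biotinylated, detergent-solubilized Sf9 membrane reagent for 1 hour at 4 °C and sorted by FACS into low and high (top ~1%) gates on anti-HA and streptavidin fluorescence. Polyreactivity labels come from the gate of origin.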

## QVQLVESGGGLVQAGGRLRLSCAASGRIFYNYAMGWYRQAPGKERELVAAISGSGGSTYYADSVKGRFTISRDNAKNTVYLQMNCLKPDDTAVYYCSTSGPQYYSRNFDYWGQGTQVTVSS
  polyreactivity (PSR sort gate): low polyreactivity

## QVHLLASGGGLVQAGGSLGLSCAASGRPFNGYALGWYRPAPGSERELVASITLRGGSTYYADSVKGRFTISRDNAKYTVYLQMNCLKPEDTAVYYCNARPNTRRYTFPYGNCGQGTQVTVSS
  polyreactivity (PSR sort gate): high polyreactivity

## QVQLVESGGGLVKAGGSLRLSCAASGRTFFRNAMGWYRQAPGKEREFVAAINSSGGSTYYADSVKGRFTISRDNAKNTVYFQMNSLKPEDTAVYYCARYHYPFYKPYGFGYWGQGTQVTVSS
  polyreactivity (PSR sort gate): high polyreactivity

## QVQLEESGGGLVQAGGSLRLSCAASGFTFSLYGMGWYRQAPGKERELVAAIRSGGSTNYADSVKGRFTISRDNAKNTVYLQMNSLKPEDTAVYYCATDIHSVNNNRDKHDYDYWGQGTLVTVSS
  polyreactivity (PSR sort gate): low polyreactivity

## QVQLVESGGGLVQAGGSLRLSCAASGRISVFYAMGWYRQAPGKEMELGAAITRSGTTKYADSVKGRFTISRDNAKNTVYLQMNSLKPEDTAVYYCAARSVYYKFGYYYWGQGSQVTVSS
  polyreactivity (PSR sort gate): high polyreactivity

## QVQLVESGGGLVQAGGSRRLSFAASGFTFKYYAMGWYRQAPGKERELVDAISRRGGSTSYADSVKGRFTISRDNAKNTVYLKMNSLKPEDTSVYYLAADSSFERSSDYWGQGTQVTVSS
  polyreactivity (PSR sort gate): high polyreactivity

## QVQLVESGGGLVQAGGSLRLSCAASGIIFLDNAMVWYRQAPGKERELVAAITTGGITYYADSVKGRFTISRDNAKNTVYLQMNSLKPEDTAVYYCAADNEWPRYDYWGQGTQVTVSS
  polyreactivity (PSR sort gate): low polyreactivity

## QVQLVESGGGLVQAGGSLRLSCAASGSTFDYYAMGWYRQAPGKERELVAAISWSGGSTYYADSVKGRFTISRDNEKNTVYLQMNSLKPEDTAVYYCAALYSYISGGYIYDYWGQGTQVTVSS
  polyreactivity (PSR sort gate): low polyreactivity

## QVQLVESGGGLVQAGGSLRLSCAASGSTFWDYTMGWYRQAPGKERELVAAINYSDGSTYYADSVKGRFTISRDNAKNTVYLQMNSLKPEDTAVYYCAAGSDPTGRRYDYWGQGTQVTVSS
  polyreactivity (PSR sort gate): low polyreactivity

## QVQLVESGGGLVQAGGSLRLSCAASGSIFGSNAMGWYRQAPGKERELVAAITNTGRTNYADSVKGRFTISRDNAKNTVYLQMNSLKPEDTAVYYCNTDGYEFTHFAAGSGWRFDYWGLGTQVTVSS
  polyreactivity (PSR sort gate): low polyreactivity

## QVQLVESGGGLVQAGGSLRLSCAASGIIFRYYAMGWYRQAPGKERELVAAISSSTGNTYYADSVKGRFTISRDNAKNTVYLQMNSLKPEDTAVYYCAARTRQISIVGYNYWGQGTQVTVSS
  polyreactivity (PSR sort gate): high polyreactivity

## QVHLVESAVGLVQAGGSLRLSCAASASTFPSYAMGWYRQAPGKERELVAAINSGGGTNYADSVKGRFTISRDNAKNTVYLQMNSLKPEDTAVYYCAKSRYDYTKTEGGYWGQGTQVTVSS
  polyreactivity (PSR sort gate): low polyreactivity

## QVQLVESGGGLVQAGGSLRLSCAASGSIFQVYAMGWYRQAPGKEREFVAAISYSGGGTYYADSVKGRFTISRDNAKNTVYLQMNSLKPEDTAVYYCAADVSGWEYDYWGQGTQVTVSS
  polyreactivity (PSR sort gate): low polyreactivity

## QVQLVESGGGLVQAGGSLRLSCAASGRIFSRYAMGWYRQAPGKERELVAAISRAASTNYADSVKGRFTISRDNAKNTVYLQMNSLKPEDTAVYYCNKRLYGYYGRYDYWGQGTQVTVSS
  polyreactivity (PSR sort gate): low polyreactivity

## QVQLVESGGGLVQAGGSLRLSCAASGLISYAYAMGWYRQAPGKERELVAAIRSSGSTYYADSVKGRFTISRDNAKNTVYLQMNSLKPEDTAVYYCAAYVWRRGDGYYYWGQGTQVTVSS
  polyreactivity (PSR sort gate): high polyreactivity

## QVQLVESGGGLVQAGGSLRLSCPASGITVTAYAMGWYRQAPGKERELVATINSTGITNYADSVKGRFTISRDNAKNTVYLQMNSLKPEDTAVYYCAADLMDSSSYDGMDYWGQGTQVTVSS
  polyreactivity (PSR sort gate): low polyreactivity

## QVQLVESGGGLDQAGGSLRLSCAASGRIFSRYTMGWYRQAPGKERELVAAISSGGGSNYADSVKGRFTISRDNAKNSVYLQMTSLNPEDTEVYYCNARSWLSRGYGYWGQGTQVTVSS
  polyreactivity (PSR sort gate): high polyreactivity

## QVQLVESGGGLVQAGGSLRLICAASGITFVTYAMGWYRQAPGKERELVAAISRSGGRTYYADSVKGRFTISRDNAKNTVYLQMNSLKPEDTSVYYCAAERKNKYDYWGQGTQVTVSS
  polyreactivity (PSR sort gate): high polyreactivity

## QVQLVESGGGLVQAGGSLRLSCAASGRTSGFNTMGWYRQAPGKESELVAAISFSGGSTYYADSVKGRFTISRDNAKNTVYLHMNSLKPEDTAVYYCNALYRYLYRSGDYWGQGTQVTVSS
  polyreactivity (PSR sort gate): low polyreactivity

## QDQLVESAAGLVQAGGSLRLSCAASGRTLYTNALGWYIQAPGKERELVAAISSDSSTKYADSVKGRFTISRDNAKNTVYLQMNSLKPEDTAVYYCARRGAFYYLYGHQYALYDYWGQGTQVTVSS
  polyreactivity (PSR sort gate): low polyreactivity

## QVQLVESRGGLVQAGGSLRLSCAASGFTFYLNALGWYRPAPGKERELVAAISYSDGSTYYADSVKGRFTISRDNAKNTVYLQMNSLKPEDTAVYYCAADTTDPGGAYQLMDYCGQGTQVTVSS
  polyreactivity (PSR sort gate): high polyreactivity

## QVQLVESWGGLVQAGGSLRLSCAASGRIFYGYAMAWYRQAPGKEREFVAAITVSAGSTYYADSVKGRFTISRDNAKNTVYLQMNSLKPEDTEVYYCAAKRYVYTSYRFVYWGQGTQVTVSS
  polyreactivity (PSR sort gate): low polyreactivity

## QVQLVESGGGLVQAGGSLRLSCAASGFTFDQYGMGWYRQAPGKERVLVAGISWGGGTTYYADSVKGRFTISRDNAKNTVYLQMNSLKPEDTAVYYCAAVRPGYPYYGSDYWGQGTQVTVSS
  polyreactivity (PSR sort gate): low polyreactivity

## QVQLVESGGGLVQAGGSLRLSCAASGRTFASYAMGWYRQAPGKERELVASIRYSGGSTHYADSVKGRFTISRDNAKNTVYLQMNSLKPEDTAVNYCNARPKFRTYNYWGQGTQVTVSS
  polyreactivity (PSR sort gate): high polyreactivity

## QVQLVESGGGLVQAGGSLRLSCAASGYIFYSCAMGWYRQAPGKERELVATISSGGSTYYSDSVKGRFTISRDNAKNTVYLQMNSLKPEDTAVYYCNAKMYKPPFDYWGQGTQVTVSS
  polyreactivity (PSR sort gate): low polyreactivity

## QVQLVESGGGLVQAGGSLRLSCAASGRIFGAYAMGWYRPAPGKERELVAAITGGDSTYYADSVKGRFTISRDNAKNTVYLQMNSLKPEDTAVYYCAADLTPEGVLQLGKYINYDSWGQGTQVTVSS
  polyreactivity (PSR sort gate): low polyreactivity

## QVQLVESGGGLVQAGGSLRLSCAASGSTFSTYVMGWYRQAPGKERELVATISYSSDSTYYADSVKVRFTISRDNAKNTVYLQMNSLKPEDSAVYYCNAARFTRRDYWGQGTQVTVSS
  polyreactivity (PSR sort gate): high polyreactivity

## QVQLVESGGGLVQAGGSLRLSCAASGRIFPYYTMGWYRQAPGKERELVAAISRRGSSTYYADSVKGRFTISRDNAQNTVYLQMNSLKPEDTAVYNCAADRGGYTRTGEYDYWGQGTQVTVSS
  polyreactivity (PSR sort gate): high polyreactivity

## QVQLVESGGGLVQAGGSLRLSCAASGRTFRSNAMGWNIQAPGKERELVAAITRGRRTYYADSVKGRFTISRDNAKNTVYLQMNSMKPEDTAVYYCAGVGRYACRLDYWGQGTQVTVSS
  polyreactivity (PSR sort gate): high polyreactivity

## QVQLVESGGGLVQAGGSLRLSCAASGSILSINGMGWYRQAPGKERELVATIDGSDGSTFYADSVKGRFTISRDNAKNTVYLQMNSLKPEDTAVYYCAAENFWQTKEYDYWGQGTQVTVSS
  polyreactivity (PSR sort gate): low polyreactivity

## QVQLVESGGGLVQAGGSLRVSCAASGRTFYFNAMGWYRQAPGKERELVAVISWSGGRTYYADSVKGRFTISRDNAKNTVYLLMNSLKPEDTAVYYCAADYQSGGSRYDYWGQGTQVTVSS
  polyreactivity (PSR sort gate): high polyreactivity

## QVQLQESGGGLVQAGGSLRLSCAASGNISSYYRMGWYRHAPGKEREFVATIAVGGTTNYADSVKGRFTISRDNAKNTVYLQMNSLKPEDTAVCFCAANCNQYTWFDYWGQGTQVPVSS
  polyreactivity (PSR sort gate): low polyreactivity
